Assay results taken from US20070202045A1.

Molecular target: Rabbit SA (rabbit) (UniProt P49065)
Assay: competition ELISA (SA08b binding to rabbit albumin)

Rabbit SA (rabbit), sequence (P49065 25-608): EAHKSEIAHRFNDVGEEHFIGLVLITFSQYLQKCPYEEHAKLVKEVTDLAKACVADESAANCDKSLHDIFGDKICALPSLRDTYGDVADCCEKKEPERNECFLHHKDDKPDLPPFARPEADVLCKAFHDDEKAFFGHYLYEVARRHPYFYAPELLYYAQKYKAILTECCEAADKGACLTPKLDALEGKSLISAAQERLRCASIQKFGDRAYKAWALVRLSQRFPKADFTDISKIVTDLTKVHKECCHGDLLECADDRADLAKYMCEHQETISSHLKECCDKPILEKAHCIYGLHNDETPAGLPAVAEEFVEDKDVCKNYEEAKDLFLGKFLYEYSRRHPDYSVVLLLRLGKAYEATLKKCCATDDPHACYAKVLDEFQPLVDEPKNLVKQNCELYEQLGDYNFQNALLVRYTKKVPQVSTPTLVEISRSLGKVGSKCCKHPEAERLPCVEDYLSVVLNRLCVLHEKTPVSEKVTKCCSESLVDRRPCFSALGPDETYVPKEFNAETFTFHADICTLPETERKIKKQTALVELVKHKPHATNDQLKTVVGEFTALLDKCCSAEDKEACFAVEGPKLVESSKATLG

Substance: dia4D5
- IC50: 10 nM
